The record followed here is patent US20090214662A1 (UNIVERSITY OF MARYLAND BALTIMORE, published 2009).

Assay [1] concerns the target Lactobacillus brevis ATCC 8287 SlpA surface layer protein (Lactobacillus brevis ATCC 8287) (UniProt Q05044). Put plainly: SPR (BIAcore 3000), Kd of laminin compared with Kd of fibronectin on immobilised SlpA.
Assay [2] shares this target. Put plainly: SPR (BIAcore 3000), SlpA immobilised on CM5 chip, collagen injected, 1:1 Langmuir fit.
The target is the same in assay [3]. In words: SPR (BIAcore 3000), immobilised SlpA preincubated with 1 mM benzamidine, fibronectin injected, steady-state evaluation.
Assay [4] shares this target. Put plainly: SPR (BIAcore 3000), SlpA immobilised on CM5 chip, fibronectin injected, 1:1 Langmuir fit.
The target in assay [5] is T1, Laminin (basement membrane of Engelbreth-Holm-Swarm mouse sarcoma) (mouse, UniProt P19137 25-3083; P02469 22-1786; P02468 34-1607).
T1 construct: mature; Bought from Sigma
In words: SPR (BIAcore 3000), SlpA immobilised on CM5 chip, laminin injected, 1:1 Langmuir fit. The protocol: (§1) The interaction between SlpA and extracellular matrix components was evaluated by surface plasmon resonance on a BIAcore 3000 instrument. Purified SlpA protein in 5M LiCl was dialyzed against double-distilled water overnight. Monomeric and/or oligomeric protein was separated from self-assembled material by centrifugation at 20,000×g for 20 min. SlpA protein (50 ug/ml in 10 mM Sodium Phosphate pH 7.4) was covalently coupled to CM5 carboxylated dextran chips using N-hydroxysuccinimide (NHS) chemistry. […] Kinetic analysis was carried out at 25° C. in 10 mM HEPES, 150 mM NaCl, 3 mM EDTA, 0.005% surfactant P20, pH 7.4. […] Binding was determined experimentally by comparing the number of RU's observed as a function of time to an activated and blocked flow cell containing no linked protein. […] Data were evaluated using the BIAevaluation 4.1 software. The association and dissociation data were modeled with the BIAevaluation 4.1 software (Pharmacia Biosensor AB). Following subtraction of data from the control flow cell, the binding data produced for the various protein concentrations were fitted simultaneously, assuming the 1:1 Langmuir model.
(§2) The association and dissociation rate constants were estimated from the binding data at different concentrations using the BIAevaluation software and from these values the binding constant was calculated (Table 2).

Assay [6] concerns the target T2, Fibrinogen (human plasma) (human, UniProt P02671 20-629; P02675 31-491; P02679 27-453, limits assumed).
T2 construct: mature; Bought from Calbiochem
T2 sequence (looked up) 1: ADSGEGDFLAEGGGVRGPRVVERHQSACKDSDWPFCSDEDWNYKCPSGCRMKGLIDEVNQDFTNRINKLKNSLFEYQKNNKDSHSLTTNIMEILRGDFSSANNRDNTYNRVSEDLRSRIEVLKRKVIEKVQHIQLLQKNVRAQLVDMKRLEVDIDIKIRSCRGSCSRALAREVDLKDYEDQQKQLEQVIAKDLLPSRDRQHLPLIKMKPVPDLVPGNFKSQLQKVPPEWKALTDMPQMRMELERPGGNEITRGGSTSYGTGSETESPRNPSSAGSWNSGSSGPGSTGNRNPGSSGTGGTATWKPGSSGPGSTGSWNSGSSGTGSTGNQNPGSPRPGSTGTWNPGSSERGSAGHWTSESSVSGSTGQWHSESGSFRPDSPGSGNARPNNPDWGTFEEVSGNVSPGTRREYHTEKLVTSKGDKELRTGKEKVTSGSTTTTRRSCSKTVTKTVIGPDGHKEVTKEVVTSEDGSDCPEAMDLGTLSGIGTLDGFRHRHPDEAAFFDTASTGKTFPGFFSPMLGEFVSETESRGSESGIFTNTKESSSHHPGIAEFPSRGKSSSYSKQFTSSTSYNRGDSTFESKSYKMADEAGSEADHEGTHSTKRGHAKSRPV
T2 sequence (looked up) 2: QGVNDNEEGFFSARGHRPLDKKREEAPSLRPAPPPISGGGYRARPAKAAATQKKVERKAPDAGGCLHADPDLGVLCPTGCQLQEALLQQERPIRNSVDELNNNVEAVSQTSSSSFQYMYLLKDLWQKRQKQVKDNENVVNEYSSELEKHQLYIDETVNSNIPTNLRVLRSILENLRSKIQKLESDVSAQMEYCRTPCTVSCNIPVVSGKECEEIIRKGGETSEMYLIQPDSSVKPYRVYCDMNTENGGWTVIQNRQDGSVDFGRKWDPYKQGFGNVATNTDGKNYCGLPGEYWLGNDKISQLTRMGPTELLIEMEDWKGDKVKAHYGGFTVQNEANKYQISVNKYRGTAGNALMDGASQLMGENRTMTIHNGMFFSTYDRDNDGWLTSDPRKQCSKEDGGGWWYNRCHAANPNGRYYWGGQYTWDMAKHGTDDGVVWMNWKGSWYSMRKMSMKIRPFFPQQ
T2 sequence (looked up) 3: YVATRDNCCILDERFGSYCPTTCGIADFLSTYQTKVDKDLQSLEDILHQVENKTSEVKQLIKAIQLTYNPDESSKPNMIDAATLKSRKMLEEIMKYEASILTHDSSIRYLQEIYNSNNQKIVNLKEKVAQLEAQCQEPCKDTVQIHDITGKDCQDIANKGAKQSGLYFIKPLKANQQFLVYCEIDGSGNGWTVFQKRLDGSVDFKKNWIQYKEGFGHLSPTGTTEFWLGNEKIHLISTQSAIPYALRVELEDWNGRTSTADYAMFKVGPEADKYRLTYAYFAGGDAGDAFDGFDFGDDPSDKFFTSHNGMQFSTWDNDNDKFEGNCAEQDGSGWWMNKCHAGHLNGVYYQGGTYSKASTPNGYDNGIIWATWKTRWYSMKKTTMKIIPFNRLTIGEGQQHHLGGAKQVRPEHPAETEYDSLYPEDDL
In words: SPR (BIAcore 3000), SlpA immobilised on CM5 chip, fibrinogen injected; Table 2 value. The protocol:
as §1, §2

For assay [7], the target named is T1, Laminin (basement membrane of …). Put plainly: SPR (BIAcore 3000), immobilised SlpA preincubated with 1 mM benzamidine, laminin injected, 1:1 Langmuir fit.

On to “Laminin (basement membrane of Engelbreth-Holm-Swarm mouse sarcoma), P19137 25-3083; P02469 22-1786; P02468 34-1607”, for which the fold higher affinity than for fibronectin in assay [1] came to 3 fold.
Take “Collagen (human placenta Type IV) (from UniProt P02462 28-1440; P08572 26-1484)”: in assay [2], the Kd was 31.8 µM and the koff came out at 0.0011 s⁻¹.
“Fibronectin (human plasma) (from UniProt P02751 32-2477)” showed a Kd in assay [3] of 30.1 µM. In assay [4], the Kd was determined as 0.0898 µM and the koff came to 0.00632 s⁻¹.

B1: Lactobacillus brevis ATCC 8287 SlpA surface layer protein (other, UniProt Q05044 31-465, looked up)
chain: KSYATAGAYSTLKTDAATRNVEATGTNALYTKPGTVKGAKVVASKATMAKLASSKKSADYFRAYGVKTTNRGSVYYRVVTMDGKYRGYVYGGKSDTAFAGGIKSAETTTKADMPARTTGFYLTDTSKNTLWTAPKYTQYKASKVSLYGVAKDTKFTVDQAATKTREGSLYYHVTATNGSGISGWIYAGKGFSTTATGTQVLGGLSTDKSVTATNDNSVKIVYRTTDGTQVGSNTWVTSTDGTKAGSKVSDKAADQTALEAYINANKPSGYTVTNPNAADATYGNTVYATVSQAATSKVALKVSGTPVTTALTTADANDKVAANDTTANGSSVAGSTVYAAGTKLAQLTTDLTGEKGQVVTLTAIDTDLEDATFTGTTTYYSDLGKAYHYTYTYNKDSAASSNASTQFGSNVTGTLTATLVMGKSTATANGTTWFN
notes: mature; Native protein purified from the bacterium; The soluble monomeric and/or oligomeric fraction after dialysis and centrifugation was covalently coupled (NHS chemistry) to a CM5 chip, about 1700 RU; also called S-layer protein; Surface Layer Protein A
For the molecule B1, the figures for the Kd in assay [5], in assay [6] and in assay [7] were 0.0267 µM, 26.1 µM and 0.066 µM, respectively. For the same molecule, the values for the koff in assay [5] and in assay [7] were 0.0013 s⁻¹ and 0.002 s⁻¹, respectively.
